# According to paper PMC3518268 (Science (New York, N.Y.), 2009):
# T1: pseudokinase domain of STRADα (residues 59-431) (human, UniProt Q7RTN6 59-431)
# T1 sequence (looked up): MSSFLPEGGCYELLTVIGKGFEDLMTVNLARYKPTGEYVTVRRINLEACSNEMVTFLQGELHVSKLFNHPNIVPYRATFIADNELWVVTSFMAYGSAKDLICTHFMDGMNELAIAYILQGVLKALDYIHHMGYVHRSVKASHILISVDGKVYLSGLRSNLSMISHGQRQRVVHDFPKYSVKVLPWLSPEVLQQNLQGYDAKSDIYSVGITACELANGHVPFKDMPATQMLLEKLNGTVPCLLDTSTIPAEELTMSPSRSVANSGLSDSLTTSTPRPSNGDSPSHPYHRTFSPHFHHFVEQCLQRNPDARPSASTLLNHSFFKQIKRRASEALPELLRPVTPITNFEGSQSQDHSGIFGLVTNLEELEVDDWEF
# B1: full length MO25α (natural protein, human, UniProt Q9Y376 1-341, looked up)
# chain: MPFPFGKSHKSPADIVKNLKESMAVLEKQDISDKKAEKATEEVSKNLVAMKEILYGTNEKEPQTEAVAQLAQELYNSGLLSTLVADLQLIDFEGKKDVAQIFNNILRRQIGTRTPTVEYICTQQNILFMLLKGYESPEIALNCGIMLRECIRHEPLAKIILWSEQFYDFFRYVEMSTFDIASDAFATFKDLLTRHKLLSAEFLEQHYDRFFSEYEKLLHSENYVTKRQSLKLLGELLLDRHNFTIMTKYISKPENLKLMMNLLRDKSRNIQFEAFHVFKVFVANPNKTQPILDILLKNQAKLIEFLSKFQNDRTEDEQFNDEKTYLVKQIRDLKRPAQQEA
# B2: LKB1 kinase domain (residues 43-347), catalytically inactive mutant Asp194Ala (domain or fragment, human, UniProt Q15831 43-347, looked up)
# chain: AKLIGKYLMGDLLGEGSYGKVKEVLDSETLCRRAVKILKKKKLRRIPNGEANVKKEIQLLRRLRHKNVIQLVDVLYNEEKQKMYMVMEYCVCGMQEMLDSVPEKRFPVCQAHGYFCQLIDGLEYLHSQGIVHKDIKPGNLLLTTGGTLKISALGVAEALHPFAADDTCRTSQGSPAFQPPEIANGLDTFSGFKVDIWSAGVTLYNITTGLYPFEGDNIYKLFENIGKGSYAIPGDCGPPLSDLLKGMLEYEPAKRFSIRQIRQHSWFRKKHPPAEAPVPIPPSPDTKDRWRSMTVVPYLEDLHGA
# Assays:
# [1] = biological target: T1, pseudokinase domain of STRADα (residues …); assay: crystal structure
# full length MO25α = biological target: B1; assay: crystal structure
binding result [1],binding result (full length MO25α),Binder
binds,,B1
binds,binds,B2
